Test system: CgpS (Corynebacterium glutamicum ATCC 13032 (strain of the protein implied?))
Experiment: SPR
Settings: SPR: biotinylated DNA on streptavidin chip, CgpS 180 s association, 420 s dissociation, EMSA: 14 nM DNA, buffer, salt, pH and temperature in Text S1, not in …

Pcg1999
Kd: 58 nM

Pcg3336 (control)
Kd (very fast dissociation): 381 nM

Plys (SPR)
Kd: 11 nM
